14 molecules from US20210079074A1 (Alector, published 2021) can be followed below.

Assay [1] addresses FcγRIIIa receptor (V158 variant) (UniProt P08637 17-254). As to the kind of experiment: cell-based or functional assay.
For assay [2], the target named is T1, FcγRIIa receptor (H131 variant) (UniProt P12318 34-317, limits assumed).
T1 sequence (looked up): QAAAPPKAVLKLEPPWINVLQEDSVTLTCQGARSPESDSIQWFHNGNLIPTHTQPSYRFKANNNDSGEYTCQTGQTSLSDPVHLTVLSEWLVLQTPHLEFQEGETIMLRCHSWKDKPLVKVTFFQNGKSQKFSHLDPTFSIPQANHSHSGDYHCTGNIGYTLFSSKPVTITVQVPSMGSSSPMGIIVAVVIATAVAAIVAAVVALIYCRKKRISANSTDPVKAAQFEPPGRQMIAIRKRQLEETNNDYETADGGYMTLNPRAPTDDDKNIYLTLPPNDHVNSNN
In words: cell-based or functional assay.

Assay [3] addresses T2, recombinant MS4A4A soluble polypeptide JS1.
T2 construct: also called JS1.His; loop grafted antigen
As to the kind of experiment: ELISA, 1 ug/ml antibody. The procedure: Anti-MS4A4A antibodies of the present disclosure were tested for their ability to bind to the different recombinant MS4A4A soluble polypeptides, as described in Example 2, as follows. Nucleic acid encoding the VH and VL domains of humanized anti-MS4A4A antibodies of the present disclosure were cloned into pcDNA3.4 vector which contains either the human IgG1 heavy chain constant domain or human kappa constant domain. The humanized anti-MS4A4A antibodies were expressed in Expi293 cells and were purified by Mab select antibody purification resin (GE Healthcare Life Science, cat#17519902) following the manufacture's protocol. ELISA was performed to measure binding of anti-MS4A4A antibodies of the present disclosure the recombinant MS4A4A soluble polypeptides. 1 μg/ml biotinylated antigens were preincubated on the streptavidin-coated ELISA plates (Thermo Scientific, cat#PI15120) for 1 hour. Plates were washed 3 times, followed by the addition of antibodies (1 μg/ml, 0.33 μg/ml, and 0.11 μg/ml antibodies. Plates were incubated at room temperature with shaking for 1 hr, washed 3 times, then 1/2500 dilution of HRP conjugates goat anti human kappa antibodies added (SigmaAldrich cat#. A7164-1ML).
(An ELISA detects its analyte on a solid surface through an enzyme-linked reagent.)

Assay [4] deals with human MS4A4A (human, UniProt Q96JQ5 1-239). In words: FACS, U937-huMS4A4A, 5 ug/ml. The protocol:
Anti-MS4A4A antibodies tested were either mouse IgGs purified from hybridoma supernatant or human IgG1 Fc chimeras produced recombinantly in Expi293 cells. Affinity binding to cells was determined as follows. Briefly, cells were harvested, washed, and labeled with Aqua Live/Dead for viability discrimination. After a wash with PBS, 2×10\hat{ }4 cells were aliquoted per well in 96-well U-bottom plates and incubated with 50 μL of purified anti-MS4A4A antibody at various concentrations (3× dilutions starting at 10 μg/mL) in FACS buffer (PBS+2% FBS+1 mM EDTA). After this primary incubation, the supernatant was removed via centrifugation, washed 2× with 150 μL of ice-cold FACS buffer, and incubated with the appropriate secondary antibody on ice for 15 minutes. Following the secondary antibody incubation, the cells were again washed 2× with ice-cold FACS buffer and resuspended in a final volume of 200 μL of FACS buffer. Flow cytometry analysis was performed on a FACSCanto system (BD Biosciences). Binding data was expressed as Median Fluorescent Intensity (MFI).
These experiments were performed using anti-MS4A4A antibodies at a concentration of 5 μg/ml and were assayed for cell binding by flow cytometry.
In general terms: Flow cytometry measures light scatter and fluorescence of single cells or particles in a stream.

Chain of FcγRIIIa receptor (V158 variant) (P08637 other isoform, or with tags, fused parts or gaps mutant limits assumed): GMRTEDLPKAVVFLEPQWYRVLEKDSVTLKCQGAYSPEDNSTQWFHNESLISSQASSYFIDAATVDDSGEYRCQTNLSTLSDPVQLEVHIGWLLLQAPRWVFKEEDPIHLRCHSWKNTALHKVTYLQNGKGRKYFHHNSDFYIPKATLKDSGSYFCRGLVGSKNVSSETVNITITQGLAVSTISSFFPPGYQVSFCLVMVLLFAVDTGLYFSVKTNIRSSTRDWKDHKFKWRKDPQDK

B1: anti-MS4A4A antibody 4A-313 K322A huIgG1 (antibody)
heavy: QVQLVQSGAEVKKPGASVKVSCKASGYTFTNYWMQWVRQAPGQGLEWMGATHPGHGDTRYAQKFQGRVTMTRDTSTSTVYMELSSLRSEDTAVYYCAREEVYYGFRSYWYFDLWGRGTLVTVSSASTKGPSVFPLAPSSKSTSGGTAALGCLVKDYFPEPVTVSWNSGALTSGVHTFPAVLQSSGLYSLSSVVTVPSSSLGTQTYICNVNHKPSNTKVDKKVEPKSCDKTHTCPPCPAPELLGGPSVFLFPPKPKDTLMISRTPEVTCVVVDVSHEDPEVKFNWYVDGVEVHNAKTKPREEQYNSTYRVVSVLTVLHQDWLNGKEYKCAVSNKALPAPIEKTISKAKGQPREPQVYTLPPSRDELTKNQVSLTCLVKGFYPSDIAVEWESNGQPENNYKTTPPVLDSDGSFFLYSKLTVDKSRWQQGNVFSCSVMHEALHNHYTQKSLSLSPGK
light: EIVLTQSPATLSLSPGERATLSCRASESVDNYGVSRMNWYQQKPGQAPRLLIYGASNQGSGIPARFSGSGSGTDFTLTISSLEPEDFAVYYCQQSKEVPPTFGGGTKVEIKRTVAAPSVFIFPPSDEQLKSGTASVVCLLNNFYPREAKVQWKVDNALQSGNSQESVTEQDSKDSTYSLSSTLTLSKADYEKHKVYACEVTHQGLSSPVTKSFNRGEC
Turning to B1, in assay [1], the “luminescence, ADCC reporter, 3.048316 ng/mL” value was found to be 338; the “luminescence, ADCC reporter, 9.144947 ng/mL” value amounted to 338; the “luminescence, ADCC reporter, 27.43484 ng/mL” value was 341; the “luminescence, ADCC reporter, 82.30453 ng/mL” value is 426. Also, in assay [1], the “luminescence, ADCC reporter, 246.9136 ng/mL” value was 508; the “luminescence, ADCC reporter, 740.7407 ng/mL” value turned out to be 623; the “luminescence, ADCC reporter, 2,222.222 ng/mL” value was found to be 1020; the “luminescence, ADCC reporter, 6,666.667 ng/mL” value was determined as 1180. The “luminescence, ADCC reporter, 20,000 ng/mL” value in assay [1] was found to be 1220. Further, in assay [2], the “luminescence, ADCP reporter, 3.048316 ng/mL” value was found to be 51; the “luminescence, ADCP reporter, 9.144947 ng/mL” value stood at 46; the “luminescence, ADCP reporter, 27.43484 ng/mL” value came out at 44; the “luminescence, ADCP reporter, 82.30453 ng/mL” value was 66. In addition, in assay [2], the “luminescence, ADCP reporter, 246.9136 ng/mL” value was 60; the “luminescence, ADCP reporter, 740.7407 ng/mL” value was 54; the “luminescence, ADCP reporter, 2,222.222 ng/mL” value was 67; the “luminescence, ADCP reporter, 6,666.667 ng/mL” value was 242. Further, in assay [2], the “luminescence, ADCP reporter, 20,000 ng/mL” value was 154.

B2: anti-MS4A4A antibody 4A-305 (antibody, human IgG1, V domains shown)
VH: EVQLVQSGAEVKKPGATVKISCKVSGYTFTNYWMQWVQQAPGKGLEWMGATHPGHGDTRYAEKFQGRVTITADTSTDTAYMELSSLRSEDTAVYYCAREEVYYGFRSYWYFDVWGRGTLVTVSS
VL: DIVMTQSPDSLAVSLGERATINCRASESVDNYGVSFMNWYQQKPGQPPKLLIYGASNQGSGVPDRFSGSGSGTDFTLTISSLQAEDVAVYYCQQSKEVPPTFGGGTKVEIK
notes: human IgG1/kappa
Regarding B2, the OD450 in assay [3] was 0.116.

B3: anti-MS4A4A antibody 4A-303 (antibody, human IgG1, V domains shown)
VH: EVQLVQSGAEVKKPGESLKISCKGSGYTFTNYWMQWVRQMPGKGLEWMGATHPGHGDTRYSPSFQGQVTISADKSISTAYLQWSSLKASDTAMYYCAREEVYYGFRSYWYFDVWGRGTLVTVSS
VL: DIVMTQSPDSLAVSLGERATINCRASESVDNYGVSFMNWYQQKPGQPPKLLIYGASNQGSGVPDRFSGSGSGTDFTLTISSLQAEDVAVYYCQQSKEVPPTFGGGTKVEIK
notes: human IgG1/kappa
B3: the OD450 in assay [3] turned out to be 0.121.

B4: anti-MS4A4A antibody 4A-311 (antibody, human IgG1, V domains shown)
VH: EVQLVQSGAEVKKPGATVKISCKVSGYTFTNYWMQWVQQAPGKGLEWMGATHPGHGDTRYAEKFQGRVTITADKSTSTAYMELSSLRSEDTAVYYCAREEVYYGFRSYWYFDVWGRGTLVTVSS
VL: DIVMTQSPDSLAVSLGERATINCRASESVDNYGVSFMNWYQQKPGQPPKLLIYGASNQGSGVPDRFSGSGSGTDFTLTISSLQAEDVAVYYCQQSKEVPPTFGGGTKVEIK
notes: human IgG1/kappa
For the molecule B4, the OD450 in assay [3] is 0.122.

B5: anti-MS4A4A antibody 4A-307 (antibody, human IgG1, V domains shown)
VH: QVQLVQSGAEVKKPGASVKVSCKASGYTFTNYWMQWVRQAPGQGLEWMGATHPGHGDTRYAQKFQGRVTMTADKSTSTVYMELSSLRSEDTAVYYCAREEVYYGFRSYWYFDVWGRGTLVTVSS
VL: DIVMTQSPDSLAVSLGERATINCRASESVDNYGVSFMNWYQQKPGQPPKLLIYGASNQGSGVPDRFSGSGSGTDFTLTISSLQAEDVAVYYCQQSKEVPPTFGGGTKVEIK
notes: human IgG1/kappa
As for B5, the OD450 in assay [3] amounted to 0.126.

B6: anti-MS4A4A antibody 4A-310 (antibody, human IgG1, V domains shown)
VH: EVQLVQSGAEVKKPGESLKISCKGSGYTFTNYWMQWVRQMPGKGLEWMGATHPGHGDTRYSPSFQGQVTISADKSSSTAYLQWSSLKASDTAMYYCAREEVYYGFRSYWYFDVWGRGTLVTVSS
VL: DIVMTQSPDSLAVSLGERATINCRASESVDNYGVSFMNWYQQKPGQPPKLLIYGASNQGSGVPDRFSGSGSGTDFTLTISSLQAEDVAVYYCQQSKEVPPTFGGGTKVEIK
notes: human IgG1/kappa
Consider B6, for which the OD450 in assay [3] was 0.118.

B7: anti-MS4A4A antibody 4A-306 (antibody, human IgG1, V domains shown)
VH: QVQLVQSGAEVKKPGASVKVSCKASGYTFTNYWMQWVRQAPGQGLEWMGATHPGHGDTRYAQKFQGRVTMTRDTSTSTVYMELSSLRSEDTAVYYCAREEVYYGFRSYWYFDVWGRGTLVTVSS
VL: DIQMTQSPSSLSASVGDRVTITCRASESVDNYGVSFMNWYQQKPGKAPKLLIYGASNQGSGVPSRFSGSGSGTDFTLTISSLQPEDFATYYCQQSKEVPPTFGGGTKVEIK
notes: human IgG1/kappa
Consider B7, for which the OD450 in assay [3] is 0.12.

B8: anti-MS4A4A antibody 4A-333 (antibody, human IgG1, V domains shown)
VH: QVQLVQSGSELKKPGASVKVSCKASGYIFTSYGLSWVRQAPGQGLEWMGWINTYSGVPTYAQGFTGRFVFSLDTSVSTTYLQISSLKAEDTAVYYCARSLVDYWGQGTLVTVSS
VL: DVVMTQSPLSLPVTLGQPASISCKSSQSLLYSDGKTYLSWFQQRPGQSPRRLIYLVSKLDSGVPDRFSGSGSGTDFTLKISRVEAEDVGVYYCWQGIDFHQTFGGGTKVEIK
notes: humanized 4A-21; human IgG1/kappa
In the case of B8, in assay [3], the OD450 stood at 1.79. This molecule displayed an MFI in assay [4] of 350.

B9: anti-MS4A4A antibody 4A-341 (antibody, human IgG1, V domains shown)
VH: QVQLVQSGAEVKKPGASVKVSCKASGYIFTSYGLSWVRQAPGQRLEWMGWINTYSGVPTYSQKFQGRVTITRDTSASTAYMELSSLRSEDTAVYYCARSLVDYWGQGTLVTVSS
VL: DVVMTQTPLSLSVTPGQPASISCKSSQSLLYSDGKTYLSWYLQKPGQPPQLLIYLVSKLDSGVPDRFSGSGSGTDFTLKISRVEAEDVGVYYCWQGIDFHQTFGGGTKVEIK
notes: as for B8
For the molecule B9, the OD450 in assay [3] amounted to 0.162.

B10: anti-MS4A4A antibody 4A-335 (antibody, human IgG1, V domains shown)
VH: QVQLVQSGSELKKPGASVKVSCKASGYIFTSYGLSWVRQAPGQGLEWMGWINTYSGVPTYAQGFTGRFVFSLDTSVSTAYLQISSLKAEDTAVYYCARSLVDYWGQGTLVTVSS
VL: DVVMTQTPLSSPVTLGQPASISCKSSQSLLYSDGKTYLSWLQQRPGQPPRLLIYLVSKLDSGVPDRFSGSGAGTDFTLKISRVEAEDVGVYYCWQGIDFHQTFGGGTKVEIK
notes: as for B8
As for B10, the OD450 in assay [3] amounted to 1.66. The same molecule came in with an MFI in assay [4] of 286.

B11: anti-MS4A4A antibody 4A-347 (antibody, human IgG1, V domains shown)
VH: QVQLVQSGAEVKKPGASVKVSCKASGYIFTSYGLSWVRQAPGQRLEWMGWINTYSGVPTYSQKFQGRVTITLDTSASTTYMELSSLRSEDTAVYYCARSLVDYWGQGTLVTVSS
VL: DIVMTQTPLSLSVTPGQPASISCKSSQSLLYSDGKTYLSWYLQKPGQPPQLLIYLVSKLDSGVPDRFSGSGSGTDFTLKISRVEAEDVGVYYCWQGIDFHQTFGGGTKVEIK
notes: as for B8
For the molecule B11, the OD450 in assay [3] was found to be 0.141.

B12: anti-MS4A4A antibody 4A-334 (antibody, human IgG1, V domains shown)
VH: QVQLVQSGSELKKPGASVKVSCKASGYIFTSYGLSWVRQAPGQGLEWMGWINTYSGVPTYAQGFTGRFVFSLDTSVSTAYLQISSLKAEDTAVYYCARSLVDYWGQGTLVTVSS
VL: DIVMTQTPLSSPVTLGQPASISCKSSQSLLYSDGKTYLSWLQQRPGQPPRLLIYLVSKLDSGVPDRFSGSGAGTDFTLKISRVEAEDVGVYYCWQGIDFHQTFGGGTKVEIK
notes: as for B8
Consider B12, for which the OD450 in assay [3] amounted to 1.53. For the same molecule, the MFI in assay [4] came to 296.

B13: anti-MS4A4A antibody 4A-340 (antibody, human IgG1, V domains shown)
VH: QVQLVQSGAEVKKPGASVKVSCKASGYIFTSYGLSWVRQAPGQRLEWMGWINTYSGVPTYSQKFQGRVTITLDTSASTTYMELSSLRSEDTAVYYCARSLVDYWGQGTLVTVSS
VL: DVVMTQTPLSLSVTPGQPASISCKSSQSLLYSDGKTYLSWYLQKPGQPPQLLIYLVSKLDSGVPDRFSGSGSGTDFTLKISRVEAEDVGVYYCWQGIDFHQTFGGGTKVEIK
notes: as for B8
In the case of B13, the OD450 in assay [3] was 0.146.

B14: anti-MS4A4A antibody 4A-345 (antibody, human IgG1, V domains shown)
VH: QVQLVQSGAEVKKPGASVKVSCKASGYIFTSYGLSWVRQAPGQRLEWMGWINTYSGVPTYSQKFQGRVTITRDTSASTAYMELSSLRSEDTAVYYCARSLVDYWGQGTLVTVSS
VL: DIVMTQTPLSLSVTPGQPASISCKSSQSLLYSDGKTYLSWYLQKPGQPPQLLIYLVSKLDSGVPDRFSGSGSGTDFTLKISRVEAEDVGVYYCWQGIDFHQTFGGGTKVEIK
notes: as for B8
With B14, the OD450 in assay [3] came out at 0.132.
